Measured values taken from US20090018067A1 (published 2009).

Legend:
Experiment in all cases: soluble HLA class II competition assay against a biotinylated control peptide, affinity grade
[1] = target: T1, HLA DRB1*0701 (purified recombinant soluble HLA class II molecule) (human)
T1 construct: also called DRB*0701

[2] = target: HLA DRB1*1501 (purified recombinant soluble HLA class II molecule) (human)
[3] = target: T2, HLA DRB1*0101 (purified recombinant soluble HLA class II molecule) (human)
T2 construct: also called DRB*0101

[4] = target: T3, HLA DRB1*0401 (purified recombinant soluble HLA class II molecule) (human)
T3 construct: also called DRB*0401

Measured: binding result

VDTSKNQFSLRLSSVTAADTA (Synthetic Fmoc peptide) [Tregitope-074]
binds: all assays above
